Starred links: 1 amine or outer side, 2 acyl side, 3 side chain; linkers in the order of their positions; H or OH if unused. Non-standard residues stand in square brackets, D forms with d. No end group written: not given here. Azetidine3carboxylic = O=C(C1CN([*:1])C1)[*:2]; Dap(CONH2) = NC(=O)NC[C@H](N)C(=O)O; 3Pal = N[C@@H](Cc1cccnc1)C(=O)O; 4Pal = N[C@@H](Cc1ccncc1)C(=O)O; dHyp = O=C(O)[C@H]1C[C@H](O)CN1; Cha = N[C@@H](CC1CCCCC1)C(=O)O; NMeS = CN[C@@H](CO)C(=O)O; dPip = O=C(O)[C@H]1CCCCN1; hSer = N[C@@H](CCO)C(=O)O; NMeA = CN[C@@H](C)C(=O)O; Nle = CCCC[C@H](N)C(=O)O; dNMeA = CN[C@H](C)C(=O)O; Aib = CC(C)(N)C(=O)O; Sar = CNCC(=O)O

The labels stand for the following.
B1: Ac-[D-Pro24, Alb26, Cha27,28,36, Aib31]-PYY(23-36) (peptide)
peptide: Ac-S[dP]R[Dap(CONH2)][Cha][Cha]NL[Aib]TRQR[Cha]-NH2
SMILES: CC(=O)N[C@@H](CO)C(=O)N1CCC[C@@H]1C(=O)N[C@@H](CCCNC(=N)N)C(=O)N[C@@H](CNC(N)=O)C(=O)N[C@@H](CC1CCCCC1)C(=O)N[C@@H](CC1CCCCC1)C(=O)N[C@@H](CC(N)=O)C(=O)N[C@@H](CC(C)C)C(=O)NC(C)(C)C(=O)N[C@H](C(=O)N[C@@H](CCCNC(=N)N)C(=O)N[C@@H](CCC(N)=O)C(=O)N[C@@H](CCCNC(=N)N)C(=O)N[C@@H](CC1CCCCC1)C(N)=O)[C@@H](C)O
B2: Ac-[D-Pic(2)24, Cha27,28,36, Aib31]-PYY(23-36) (peptide)
peptide: Ac-S[dPip]RH[Cha][Cha]NL[Aib]TRQR[Cha]-NH2
SMILES: CC(=O)N[C@@H](CO)C(=O)N1CCCC[C@@H]1C(=O)N[C@@H](CCCNC(=N)N)C(=O)N[C@@H](Cc1c[nH]cn1)C(=O)N[C@@H](CC1CCCCC1)C(=O)N[C@@H](CC1CCCCC1)C(=O)N[C@@H](CC(N)=O)C(=O)N[C@@H](CC(C)C)C(=O)NC(C)(C)C(=O)N[C@H](C(=O)N[C@@H](CCCNC(=N)N)C(=O)N[C@@H](CCC(N)=O)C(=O)N[C@@H](CCCNC(=N)N)C(=O)N[C@@H](CC1CCCCC1)C(N)=O)[C@@H](C)O
B3: Ac-[Glu23, D-Pic(2)24, Cha27,28,36, Aib31]-PYY(23-36) (peptide)
peptide: Ac-E[dPip]RH[Cha][Cha]NL[Aib]TRQR[Cha]-NH2
SMILES: CC(=O)N[C@@H](CCC(=O)O)C(=O)N1CCCC[C@@H]1C(=O)N[C@@H](CCCNC(=N)N)C(=O)N[C@@H](Cc1c[nH]cn1)C(=O)N[C@@H](CC1CCCCC1)C(=O)N[C@@H](CC1CCCCC1)C(=O)N[C@@H](CC(N)=O)C(=O)N[C@@H](CC(C)C)C(=O)NC(C)(C)C(=O)N[C@H](C(=O)N[C@@H](CCCNC(=N)N)C(=O)N[C@@H](CCC(N)=O)C(=O)N[C@@H](CCCNC(=N)N)C(=O)N[C@@H](CC1CCCCC1)C(N)=O)[C@@H](C)O
B4: Ac-[D-Pro24, Hse26, Cha27,36, Aib28,31]-PYY(23-36) (peptide)
peptide: Ac-S[dP]R[hSer][Cha][Aib]NL[Aib]TRQR[Cha]-NH2
SMILES: CC(=O)N[C@@H](CO)C(=O)N1CCC[C@@H]1C(=O)N[C@@H](CCCNC(=N)N)C(=O)N[C@@H](CCO)C(=O)N[C@@H](CC1CCCCC1)C(=O)NC(C)(C)C(=O)N[C@@H](CC(N)=O)C(=O)N[C@@H](CC(C)C)C(=O)NC(C)(C)C(=O)N[C@H](C(=O)N[C@@H](CCCNC(=N)N)C(=O)N[C@@H](CCC(N)=O)C(=O)N[C@@H](CCCNC(=N)N)C(=O)N[C@@H](CC1CCCCC1)C(N)=O)[C@@H](C)O
B5: Ac-[D-Ser23, Sar24, Cha27,28,36, Aib31]-PYY(23-36) (peptide)
peptide: Ac-[dS][Sar]RH[Cha][Cha]NL[Aib]TRQR[Cha]-NH2
SMILES: CC(=O)N[C@H](CO)C(=O)N(C)CC(=O)N[C@@H](CCCNC(=N)N)C(=O)N[C@@H](Cc1c[nH]cn1)C(=O)N[C@@H](CC1CCCCC1)C(=O)N[C@@H](CC1CCCCC1)C(=O)N[C@@H](CC(N)=O)C(=O)N[C@@H](CC(C)C)C(=O)NC(C)(C)C(=O)N[C@H](C(=O)N[C@@H](CCCNC(=N)N)C(=O)N[C@@H](CCC(N)=O)C(=O)N[C@@H](CCCNC(=N)N)C(=O)N[C@@H](CC1CCCCC1)C(N)=O)[C@@H](C)O
B6: Ac-[D-Hyp24, Cha27,28,36, Aib31]-PYY(23-36) (peptide)
peptide: Ac-S[dHyp]RH[Cha][Cha]NL[Aib]TRQR[Cha]-NH2
SMILES: CC(=O)N[C@@H](CO)C(=O)N1C[C@@H](O)C[C@@H]1C(=O)N[C@@H](CCCNC(=N)N)C(=O)N[C@@H](Cc1c[nH]cn1)C(=O)N[C@@H](CC1CCCCC1)C(=O)N[C@@H](CC1CCCCC1)C(=O)N[C@@H](CC(N)=O)C(=O)N[C@@H](CC(C)C)C(=O)NC(C)(C)C(=O)N[C@H](C(=O)N[C@@H](CCCNC(=N)N)C(=O)N[C@@H](CCC(N)=O)C(=O)N[C@@H](CCCNC(=N)N)C(=O)N[C@@H](CC1CCCCC1)C(N)=O)[C@@H](C)O
B7: Ac-[D-MeAla22, D-Pro24, Cha27,28,36, Aib31]-PYY(22-36) (peptide)
peptide: Ac-[dNMeA]S[dP]RH[Cha][Cha]NL[Aib]TRQR[Cha]-NH2
SMILES: CC(=O)N(C)[C@H](C)C(=O)N[C@@H](CO)C(=O)N1CCC[C@@H]1C(=O)N[C@@H](CCCNC(=N)N)C(=O)N[C@@H](Cc1c[nH]cn1)C(=O)N[C@@H](CC1CCCCC1)C(=O)N[C@@H](CC1CCCCC1)C(=O)N[C@@H](CC(N)=O)C(=O)N[C@@H](CC(C)C)C(=O)NC(C)(C)C(=O)N[C@H](C(=O)N[C@@H](CCCNC(=N)N)C(=O)N[C@@H](CCC(N)=O)C(=O)N[C@@H](CCCNC(=N)N)C(=O)N[C@@H](CC1CCCCC1)C(N)=O)[C@@H](C)O
B8: Ac-[MeSer23, D-Pro24, Cha27,28,36, Aib31]-PYY(22-36) (peptide)
peptide: Ac-A[NMeS][dP]RH[Cha][Cha]NL[Aib]TRQR[Cha]-NH2
SMILES: CC(=O)N[C@@H](C)C(=O)N(C)[C@@H](CO)C(=O)N1CCC[C@@H]1C(=O)N[C@@H](CCCNC(=N)N)C(=O)N[C@@H](Cc1c[nH]cn1)C(=O)N[C@@H](CC1CCCCC1)C(=O)N[C@@H](CC1CCCCC1)C(=O)N[C@@H](CC(N)=O)C(=O)N[C@@H](CC(C)C)C(=O)NC(C)(C)C(=O)N[C@H](C(=O)N[C@@H](CCCNC(=N)N)C(=O)N[C@@H](CCC(N)=O)C(=O)N[C@@H](CCCNC(=N)N)C(=O)N[C@@H](CC1CCCCC1)C(N)=O)[C@@H](C)O
B9: Ac-[Aze(3)24, Cha27,28,36, Aib31]-PYY(23-36) (peptide)
peptide: Ac-S[Azetidine3carboxylic]RH[Cha][Cha]NL[Aib]TRQR[Cha]-NH2
SMILES: CC(=O)N[C@@H](CO)C(=O)N1CC(C(=O)N[C@@H](CCCNC(=N)N)C(=O)N[C@@H](Cc2c[nH]cn2)C(=O)N[C@@H](CC2CCCCC2)C(=O)N[C@@H](CC2CCCCC2)C(=O)N[C@@H](CC(N)=O)C(=O)N[C@@H](CC(C)C)C(=O)NC(C)(C)C(=O)N[C@H](C(=O)N[C@@H](CCCNC(=N)N)C(=O)N[C@@H](CCC(N)=O)C(=O)N[C@@H](CCCNC(=N)N)C(=O)N[C@@H](CC2CCCCC2)C(N)=O)[C@@H](C)O)C1
B10: [MeAla22, D-Pro24, Cha27,28,36, Aib31]-PYY(22-36) (peptide)
peptide: [NMeA]S[dP]RH[Cha][Cha]NL[Aib]TRQR[Cha]-NH2
modifications: N-terminus assumed
SMILES: CN[C@@H](C)C(=O)N[C@@H](CO)C(=O)N1CCC[C@@H]1C(=O)N[C@@H](CCCNC(=N)N)C(=O)N[C@@H](Cc1c[nH]cn1)C(=O)N[C@@H](CC1CCCCC1)C(=O)N[C@@H](CC1CCCCC1)C(=O)N[C@@H](CC(N)=O)C(=O)N[C@@H](CC(C)C)C(=O)NC(C)(C)C(=O)N[C@H](C(=O)N[C@@H](CCCNC(=N)N)C(=O)N[C@@H](CCC(N)=O)C(=O)N[C@@H](CCCNC(=N)N)C(=O)N[C@@H](CC1CCCCC1)C(N)=O)[C@@H](C)O
B11: Ac-[D-Pro24, Pya(3)26, Cha27,28,36, Aib31]-PYY(23-36) (peptide)
peptide: Ac-S[dP]R[3Pal][Cha][Cha]NL[Aib]TRQR[Cha]-NH2
SMILES: CC(=O)N[C@@H](CO)C(=O)N1CCC[C@@H]1C(=O)N[C@@H](CCCNC(=N)N)C(=O)N[C@@H](Cc1cccnc1)C(=O)N[C@@H](CC1CCCCC1)C(=O)N[C@@H](CC1CCCCC1)C(=O)N[C@@H](CC(N)=O)C(=O)N[C@@H](CC(C)C)C(=O)NC(C)(C)C(=O)N[C@H](C(=O)N[C@@H](CCCNC(=N)N)C(=O)N[C@@H](CCC(N)=O)C(=O)N[C@@H](CCCNC(=N)N)C(=O)N[C@@H](CC1CCCCC1)C(N)=O)[C@@H](C)O
B12: Ac-[Glu23, D-Pro24, Pya(4)26, Cha27,28,36, Aib31]-PYY(23-36) (peptide)
peptide: Ac-E[dP]R[4Pal][Cha][Cha]NL[Aib]TRQR[Cha]-NH2
SMILES: CC(=O)N[C@@H](CCC(=O)O)C(=O)N1CCC[C@@H]1C(=O)N[C@@H](CCCNC(=N)N)C(=O)N[C@@H](Cc1ccncc1)C(=O)N[C@@H](CC1CCCCC1)C(=O)N[C@@H](CC1CCCCC1)C(=O)N[C@@H](CC(N)=O)C(=O)N[C@@H](CC(C)C)C(=O)NC(C)(C)C(=O)N[C@H](C(=O)N[C@@H](CCCNC(=N)N)C(=O)N[C@@H](CCC(N)=O)C(=O)N[C@@H](CCCNC(=N)N)C(=O)N[C@@H](CC1CCCCC1)C(N)=O)[C@@H](C)O
B13: Ac-[D-Pro24, Nle25, Pya(4)26, Cha27,28,36, Aib31]-PYY(23-36) (peptide)
peptide: Ac-S[dP][Nle][4Pal][Cha][Cha]NL[Aib]TRQR[Cha]-NH2
SMILES: CCCC[C@H](NC(=O)[C@H]1CCCN1C(=O)[C@H](CO)NC(C)=O)C(=O)N[C@@H](Cc1ccncc1)C(=O)N[C@@H](CC1CCCCC1)C(=O)N[C@@H](CC1CCCCC1)C(=O)N[C@@H](CC(N)=O)C(=O)N[C@@H](CC(C)C)C(=O)NC(C)(C)C(=O)N[C@H](C(=O)N[C@@H](CCCNC(=N)N)C(=O)N[C@@H](CCC(N)=O)C(=O)N[C@@H](CCCNC(=N)N)C(=O)N[C@@H](CC1CCCCC1)C(N)=O)[C@@H](C)O
B14: Ac-[D-MeAla24, Cha27,28,36, Aib31]-PYY(23-36) (peptide)
peptide: Ac-S[dNMeA]RH[Cha][Cha]NL[Aib]TRQR[Cha]-NH2
SMILES: CC(=O)N[C@@H](CO)C(=O)N(C)[C@H](C)C(=O)N[C@@H](CCCNC(=N)N)C(=O)N[C@@H](Cc1c[nH]cn1)C(=O)N[C@@H](CC1CCCCC1)C(=O)N[C@@H](CC1CCCCC1)C(=O)N[C@@H](CC(N)=O)C(=O)N[C@@H](CC(C)C)C(=O)NC(C)(C)C(=O)N[C@H](C(=O)N[C@@H](CCCNC(=N)N)C(=O)N[C@@H](CCC(N)=O)C(=O)N[C@@H](CCCNC(=N)N)C(=O)N[C@@H](CC1CCCCC1)C(N)=O)[C@@H](C)O

human Y2 receptor (human), sequence (P49146 whole entry): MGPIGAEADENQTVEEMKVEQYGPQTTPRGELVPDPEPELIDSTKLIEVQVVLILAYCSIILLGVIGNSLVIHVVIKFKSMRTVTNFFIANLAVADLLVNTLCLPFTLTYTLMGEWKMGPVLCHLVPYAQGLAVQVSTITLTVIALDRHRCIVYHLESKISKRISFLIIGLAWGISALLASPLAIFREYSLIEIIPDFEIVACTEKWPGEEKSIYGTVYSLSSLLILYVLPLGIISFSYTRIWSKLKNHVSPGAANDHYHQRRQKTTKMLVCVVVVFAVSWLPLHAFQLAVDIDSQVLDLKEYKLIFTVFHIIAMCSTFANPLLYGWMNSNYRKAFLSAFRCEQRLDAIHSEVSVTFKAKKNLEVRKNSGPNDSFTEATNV

One assay concerns the target human Y2 receptor (human) (UniProt P49146). Briefly: RBA: [125I]-PYY displacement, hY2R/CHO membranes.
Consider B1, for which the IC50 Ratio (vs PYY(3-36)) was 12.
Still for that read-out and setting: the figure for B2 is 9.9; for B3 it is 17.
In the case of B4, the IC50 Ratio (vs PYY(3-36)) turned out to be 11.
For B5, the IC50 Ratio (vs PYY(3-36)) amounted to 6.6.
With B6, the IC50 Ratio (vs PYY(3-36)) turned out to be 1.1.
The same measure, in the same setting: the figure for B7 is 3.5; for B8 it is 12; for B9 it is 11.
Still for that read-out and setting: as for B10, the figure is 0.6.
Still for that read-out and setting: as for B11, the figure is 3.3; as for B12, 4.6.
Take B13: the IC50 Ratio (vs PYY(3-36)) amounted to 20.
The same measure, in the same setting: the figure for B14 is 3.4.

For a further assay the target is unchanged. Put plainly: cell-based or functional assay.
On to B1, for which the GBA EC50 Ratio (vs PYY(3-36)), [35S]GTPγS amounted to 2.2.
Same read-out and setting: the figure for B2 is 5.8.
Consider B3, for which the GBA EC50 Ratio (vs PYY(3-36)), [35S]GTPγS came to 10.
Still for that read-out and setting: the figure for B4 is 5.4; for B5 it is 5.3.
On the same count and under the same terms, as for B6, the figure is 0.9; as for B7, 6.1; as for B8, 7.8.
On the same count and under the same terms, the figure for B9 is 4.7.
For B10, the GBA EC50 Ratio (vs PYY(3-36)), [35S]GTPγS turned out to be 0.72.
As for B11, the GBA EC50 Ratio (vs PYY(3-36)), [35S]GTPγS is 1.2.
Same read-out and setting: as for B12, the figure is 1.3; as for B13, 2.6.
Consider B14, for which the GBA EC50 Ratio (vs PYY(3-36)), [35S]GTPγS is 2.2.

Source of the values: patent publication US20120172293A1 (Takeda / Millennium, published 2012).
